The results in this text go back to patent publication US20220220212A1 (RESEARCH FOUNDATION FOR THE STATE UNIVERSITY OF NEW YORK, published 2022).

The target of assay [1] is T1, biotinylated N-terminal domain CCR2 peptide (murine, biotinylated (position not given)).
T1 construct: Bought from ABclonal; also called CCR2 N-terminal domain; CCR2 N-terminus
T1 peptide: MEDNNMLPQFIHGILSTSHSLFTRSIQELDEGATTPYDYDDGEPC
The assay can be described thus: phage ELISA on the N-terminal peptide. The protocol: Nunc MaxiSorp 96-well plates were coated with NeutrAvidin at 5 μg/mL and incubated overnight at 4° C. The plate was thoroughly washed with 0.1% PBS-Tween (PBST), and 5 μg/mL biotinylated N-terminal domain CCR2 peptide ([…] (SEQ ID NO:58); ABclonal, Woburn, Mass.) added and incubated for 1 h at room temperature. The wells were washed with 0.1% PBST and then blocked with casein blocking buffer for 1 h at room temperature. The wells were washed with 0.1% PBST followed by incubation of serially diluted scFv for 1 h at room temperature before being washed five times with 0.1% PBST. Washes were followed by the addition of 100 uL of the respective horse-radish peroxidase (HRP)-linked monoclonal antibody (mAb) for 1 h at room temperature with rocking. An anti-M13 mAb was used to detect phages (#27-9421-01, GE healthcare, Chicago, Ill.) and an anti-flag mAb was used to detect scFv (#A8592, Sigma Aldrich, St. Louis, Mo.). The wells were washed with 0.1% PBST followed by the addition of TMB-ELISA substrate. After 10 min incubation, 2 M H₂SO₄ was added to stop the reaction. The absorbance was measured at 450 nm with a FilterMax F3 & F5 multi-mode microplate reader (Molecular Devices, Sunnyvale, Calif.). A 1:1 binding ratio Hill model was used to fit the binding interaction data.

Assay [2] deals with T2, ECL2 domain of the CCR2 chemokine receptor.
T2 construct: also called CCR2 ECL2; 2nd extracellular loop of CCR2
T2 peptide: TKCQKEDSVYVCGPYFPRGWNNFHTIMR
The assay can be described thus: binding assay of FIG. 16A,B on the ECL2 domain (method not given).

B1: phage clone 25B (scFv)
scFv: LQSVLTQPPSVSGAPGQKVTISCSGSSSNIGNNYVSWYQQLPGTAPKLLIYGNNKRPSGIPDRFSGSKSGTSATLGITGLQTGDEADYYCATWDDSLSAVVFGGGTKLTVLGEGKSSGSGSESKASQVTLKESGAEVKKPGASVKVSCKASGYTFTNFYIHWVRRAPGQGLEWMGIINPSDGRTTYAQKFQGRVTMTRDTSTSTLYMELTSLRSEDTAVYYCGRGGHYSNYFGQPSTWGQGTLVTVSS
notes: also called 25B-scFv
In the case of B1, the binding result in assay [1] is on record as “binds”.

B2: ECL2-scFv (scFv)
scFv: DYKDDDDKLQSVLTQPPSASGTPGQRVTISCSGSSSNIGSHTVNWYQQLPGTAPKLLIYRNNQRPSGVPDRFSGSKSGTSASLAISGLRSEDEADYYCAAWDDSLSGVVFGGGTKLTVLGEGKSSGSGSESKASQVTLKESGAEVKKPGASVKVSCKASGYTFTNFYIHWVRRAPGQGLEWMGIINPSDGRTTYAQKFQGRVTMTRDTSTSTLYMELTSLRSEDTAVYYCGRGGHYSNYFGQPSTWGQGTLVTVSSVEAS
notes: the construct as expressed is not described; also called 4h-scFv
As to B2, the affinity in assay [2], expressed as Kd, was 5.3 nM.

B3: phage clone 13F (scFv)
scFv: LQAVLTQPSSLSASPGASASLTCILRSDFSVVTQRVYWYQQKPGSPPRYLLRYNSDSDKRLGSGVPSRFSGSKDVSANAASLLISGLQSDDEADYYCVIWHNSAVVFGGGTKLTVLGEGKSSGSGSESKASEVQLLESGAEVKKPGESLKISCKGSGYSFTSYWIGWVRQMPGKGLEWMGIIYPGDSDTRYSPSFQGQVTISADKSISTAYLQWSSLKASDTAMYYCARRPQYYDILTGWHAGWFDPWGQGTLVTVSS
notes: also called 13F-scFv
With B3, the binding result in assay [1] is listed as “binds”.

B4: phage clone 26B (scFv)
scFv: LQSVLTQPPSASGTPGQRVTISCSGSSSNIGSNYVYWYQQLPGTAPKLLIYRNNQRPSGVPDRFSGSKSGTSASLAISGLQSEDEADYYCAAWDDSLNGVVFGGGTELTVLGEGKSSGSGSESKASQVTLKESGAEVKKPGASVKVSCKASGYTFTNFYIHWVRRAPGQGLEWMGIINPSDGRTTYAQKFQGRVTMTRDTSTSTLYMELTSLRSEDTAVYYCGRGGHYSNYFGQPSTWGQGTLVTVSS
notes: also called 26B-scFv
As to B4, the binding result in assay [1] is “binds”.

The term Kd denotes the free concentration of one partner at which half of the binding sites on the other are occupied at equilibrium, for simple one-to-one binding.
